± gives the uncertainty stated by the source.
Assay: self-splicing fitness, log relative to wild type (ln ratio); higher = more splicing; Tetrahymena group I intron in knt gene, E. coli kanamycin selection, DiMSum; sequences stand for … in CUCUCU…GGAGGGAAAAGUUAUCAGGCAUGCACCUGGUAGCUAGUCUUUAAACCAAUAGAUUGCAUCGGUUUAAAAGGCAAGACCGUCAAAUUGCGGGAAAGGGGUCAACAGCCGUUCAGUACCAAGUCUCAGGGGAAACUUUGAGAUGGCCUUGCAAAGGGUAUGGUAAUAAGCUGACGGACAUGGUCCUAACCACGCAGCCAAGUCCUAAGUCAACAGAUCUUCUGUUGAUAUGGAUGCAGUUCACAGACUAAAUGUCGGUCGGGGAAGAUGUAUUCUUCUCAUAAGAUAUAGUCGGACCUCUCCUUAAUGGGAGCUAGCGGAUGAAGUGAUGCAACACUGGAGCCGCUGGGAACUAAUUUGUAUGCGAAAGUAUAUUGAUUAGUUUUGGAGUACUCGUGGUCG
In short: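 Pooled colonies went to amplicon sequencing on an Illumina HiSeq 2500 after six replicate transformations. The plates were LB agar with 100 μg/mL carbenicillin, 50 μM IPTG and 0.2% rhamnose, with or without 25 μg/mL kanamycin, incubated overnight at 37°C or 30°C. The E. coli BL21(DE3) library had all eight P1ex-region intron nucleotides randomised, the intron placed in the knt kanamycin-resistance gene on pET-22b(+). DiMSum fitness is the error-weighted combination of replicate fold changes, kanamycin against none, normalised to wild type.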

Sequence	self-splicing fitness (ln) (30 °C)	self-splicing fitness (ln) (37 °C)
AUCGAGCAAUAUUACGUAGG	-3.82 ± 0.39	-2.04 ± 0.2
AUCGAGCAAUAUUACGUCCG	-3.17 ± 0.31	-2.94 ± 0.44
AUCGAGCAAUAUUACGUGCC	-2.52 ± 0.2	-2.22 ± 0.32
AUCGAGCAAUAUUACGUUAA	-3.73 ± 0.27	-2.48 ± 0.29
AUCUAGCAAUAUUACGAAAG	-3.62 ± 0.27	-2.15 ± 0.24
AUCUAGCAAUAUUACGAAAU	-1.81 ± 0.11	-0.899 ± 0.11
AUCUAGCAAUAUUACGAACU	-0.13 ± 0.12	0.27 ± 0.12
AUCUAGCAAUAUUACGACUU	-0.1 ± 0.074	0.24 ± 0.092
AUCUAGCAAUAUUACGAGAC	-4.67 ± 0.42	-3.22 ± 0.3
AUCUAGCAAUAUUACGAGCG	-1.87 ± 0.12	-1.25 ± 0.15
AUCUAGCAAUAUUACGAGGA	-2.83 ± 0.32	-2.01 ± 0.21
AUCUAGCAAUAUUACGAGGU	-5.03 ± 0.45	-3.28 ± 0.43
AUCUAGCAAUAUUACGAUCG	-3.35 ± 0.24	-1.77 ± 0.27
AUCUAGCAAUAUUACGCACA	-0.774 ± 0.11	0.129 ± 0.12
AUCUAGCAAUAUUACGCCCC	-0.911 ± 0.15	0.223 ± 0.22
AUCUAGCAAUAUUACGCCGG	–	-1.25 ± 0.34
AUCUAGCAAUAUUACGCUGA	-1.71 ± 0.18	-0.501 ± 0.13
AUCUAGCAAUAUUACGGAAA	-2.23 ± 0.2	-1.66 ± 0.18
AUCUAGCAAUAUUACGGACG	-0.422 ± 0.07	0.212 ± 0.094
AUCUAGCAAUAUUACGGCCG	-1.43 ± 0.23	-0.562 ± 0.38
AUCUAGCAAUAUUACGGCUA	-3.6 ± 0.28	-2.4 ± 0.23
AUCUAGCAAUAUUACGGGAC	-2.44 ± 0.17	-1.03 ± 0.13
AUCUAGCAAUAUUACGGGAG	-0.833 ± 0.076	-0.293 ± 0.092
AUCUAGCAAUAUUACGGGGC	-2.42 ± 0.47	–
AUCUAGCAAUAUUACGGGGU	-3 ± 0.16	-2.98 ± 0.2

Sequence	self-splicing fitness (ln) (30 °C)	self-splicing fitness (ln) (37 °C)
AUCUAGCAAUAUUACGUCAU	-1.41 ± 0.11	-0.955 ± 0.12
AUCUAGCAAUAUUACGUUAA	-1.84 ± 0.23	-1.82 ± 0.34
AUGAAGCAAUAUUACGAACU	-0.587 ± 0.074	0.606 ± 0.098
AUGAAGCAAUAUUACGAAUC	-1.68 ± 0.23	–
AUGAAGCAAUAUUACGACAA	0.158 ± 0.11	0.0912 ± 0.12
AUGAAGCAAUAUUACGACCU	0.893 ± 0.14	1.08 ± 0.15
AUGAAGCAAUAUUACGAGCU	-1.52 ± 0.12	-0.173 ± 0.14
AUGAAGCAAUAUUACGCCCC	0.963 ± 0.19	0.00961 ± 0.23
AUGAAGCAAUAUUACGCGCA	0.498 ± 0.096	0.526 ± 0.12
AUGAAGCAAUAUUACGCGGU	-2.88 ± 0.24	-1.71 ± 0.2
AUGAAGCAAUAUUACGCGUU	-2.78 ± 0.12	-0.429 ± 0.093
AUGAAGCAAUAUUACGCUCA	0.436 ± 0.068	0.555 ± 0.082
AUGAAGCAAUAUUACGCUGC	-2.7 ± 0.24	-2.42 ± 0.44
AUGAAGCAAUAUUACGGAAA	-2.48 ± 0.15	-0.666 ± 0.15
AUGAAGCAAUAUUACGGAUG	-0.705 ± 0.063	0.152 ± 0.076
AUGAAGCAAUAUUACGGCCG	-0.163 ± 0.18	0.947 ± 0.26
AUGAAGCAAUAUUACGGCGC	-0.339 ± 0.074	0.665 ± 0.11
AUGAAGCAAUAUUACGGCUA	0.423 ± 0.092	0.486 ± 0.11
AUGAAGCAAUAUUACGGGGU	-2.79 ± 0.23	-1.21 ± 0.17
AUGAAGCAAUAUUACGGGUA	-1.01 ± 0.097	-0.761 ± 0.13
AUGAAGCAAUAUUACGUCGC	-2.24 ± 0.14	-1.28 ± 0.18
AUGAAGCAAUAUUACGUCGG	-0.496 ± 0.1	-0.498 ± 0.11
AUGAAGCAAUAUUACGUGAA	-1.99 ± 0.088	-0.731 ± 0.12
AUGAAGCAAUAUUACGUGAG	-1.27 ± 0.083	-0.0834 ± 0.12
AUGAAGCAAUAUUACGUUGU	-1.99 ± 0.12	-0.91 ± 0.12

Sequence	self-splicing fitness (ln) (30 °C)	self-splicing fitness (ln) (37 °C)
AUGAAGCAAUAUUACGUUUG	-2.28 ± 0.11	-1.56 ± 0.13
AUGCAGCAAUAUUACGAAAU	-2.02 ± 0.13	-0.358 ± 0.11
AUGCAGCAAUAUUACGAAGG	-3.78 ± 0.37	-2.89 ± 0.41
AUGCAGCAAUAUUACGAAUC	-3.82 ± 0.24	-2.87 ± 0.2
AUGCAGCAAUAUUACGACAC	-0.537 ± 0.077	0.312 ± 0.11
AUGCAGCAAUAUUACGACCU	0.132 ± 0.082	0.168 ± 0.087
AUGCAGCAAUAUUACGAGGG	-2.51 ± 0.15	-3.09 ± 0.26
AUGCAGCAAUAUUACGAUUA	-1.32 ± 0.1	-0.923 ± 0.1
AUGCAGCAAUAUUACGCACG	-1.46 ± 0.091	-0.13 ± 0.1
AUGCAGCAAUAUUACGCAGG	-3.71 ± 0.14	-2.13 ± 0.12
AUGCAGCAAUAUUACGCGAU	-3.67 ± 0.3	-1.92 ± 0.25
AUGCAGCAAUAUUACGCUAG	-3.93 ± 0.26	-2.49 ± 0.23
AUGCAGCAAUAUUACGGACA	-1.13 ± 0.15	-0.421 ± 0.13
AUGCAGCAAUAUUACGGACG	-1.57 ± 0.12	-0.811 ± 0.13
AUGCAGCAAUAUUACGGCAU	-3.9 ± 0.19	-2.61 ± 0.15
AUGCAGCAAUAUUACGGUAA	-0.979 ± 0.11	-0.791 ± 0.1
AUGCAGCAAUAUUACGGUUC	-2.28 ± 0.088	-1.83 ± 0.13
AUGCAGCAAUAUUACGGUUG	-4.33 ± 0.23	-2.21 ± 0.19
AUGCAGCAAUAUUACGGUUU	-0.723 ± 0.065	-0.427 ± 0.075
AUGCAGCAAUAUUACGUAUC	-4.58 ± 0.41	-2.76 ± 0.4
AUGCAGCAAUAUUACGUCAU	-3.12 ± 0.14	-2.26 ± 0.12
AUGCAGCAAUAUUACGUCCG	-2.16 ± 0.11	-1.27 ± 0.14
AUGCAGCAAUAUUACGUUCA	-1.16 ± 0.11	-0.74 ± 0.12
AUGCAGCAAUAUUACGUUGU	-4.08 ± 0.16	-3.03 ± 0.15
AUGGAGCAAUAUUACGAAGA	–	-1.17 ± 0.33

Sequence	self-splicing fitness (ln) (30 °C)	self-splicing fitness (ln) (37 °C)
AUGGAGCAAUAUUACGAAGG	-3 ± 0.23	-2.29 ± 0.34
AUGGAGCAAUAUUACGAAUC	-3.53 ± 0.32	-1.97 ± 0.36
AUGGAGCAAUAUUACGCCGC	-1.29 ± 0.44	–
AUGGAGCAAUAUUACGCGCA	-1.66 ± 0.28	-0.77 ± 0.23
AUGGAGCAAUAUUACGCUCU	-3.56 ± 0.49	-1.45 ± 0.41
AUGGAGCAAUAUUACGCUGG	–	-1.53 ± 0.2
AUGGAGCAAUAUUACGGAUA	-2.46 ± 0.17	-2.21 ± 0.28
AUGGAGCAAUAUUACGGCGC	-2.45 ± 0.34	-0.677 ± 0.41
AUGGAGCAAUAUUACGGCGU	0.125 ± 0.14	0.224 ± 0.14
AUGGAGCAAUAUUACGGCUG	-2.48 ± 0.17	-1.84 ± 0.34
AUGGAGCAAUAUUACGGGAG	-2.75 ± 0.18	-2.82 ± 0.31
AUGGAGCAAUAUUACGGGGC	-3.13 ± 0.18	-2.14 ± 0.19
AUGGAGCAAUAUUACGGUGC	-2.99 ± 0.25	–
AUGGAGCAAUAUUACGUCCG	-1.29 ± 0.12	-1.06 ± 0.13
AUGGAGCAAUAUUACGUCUC	-1.83 ± 0.28	-1.89 ± 0.37
AUGGAGCAAUAUUACGUGCC	-2.59 ± 0.25	-2.25 ± 0.45
AUGGAGCAAUAUUACGUGUU	-3.69 ± 0.15	-3.73 ± 0.24
AUGUAGCAAUAUUACGACAG	0.106 ± 0.081	0.358 ± 0.095
AUGUAGCAAUAUUACGACAU	-1.39 ± 0.014	-0.557 ± 0.033
AUGUAGCAAUAUUACGACGC	-0.952 ± 0.12	0.119 ± 0.082
AUGUAGCAAUAUUACGAUUC	-2.52 ± 0.31	-1.12 ± 0.33
AUGUAGCAAUAUUACGCCCC	-0.236 ± 0.22	-0.186 ± 0.3

From the supplement of paper PMC7877785
